According to paper PMC8244254 (Current Research in Structural Biology, 2020):

B1: Marasmius oreades agglutinin (MOA) variant C215A (enzyme)
chain: MSLRRGIYHIENAGVPSAIDLKDGSSSDGTPIVGWQFTPDTINWHQLWLAEPIPNVADTFTLCNLFSGTYMDLYNGSSEAGTAVNGWQGTAFTTNPHQLWTIKKSSDGTSYKIQNYGSKTFVDLVNGDSSDGAKIAGWTGTWDEGNPHQKWYFNRMSVSSAEAQAAIARNPHIHGTYRGYILDGEYLVLPNATFTQIWKDSGLPGSKWREQIYDADDFAIAMKAAVGKWGADSWKANGFAIFCGVMLGVNKAGDAAHAYNFTLTKDHADIVFFEPQNGGYLNDIGYDSYMAFY
notes: Marasmius oreades agglutinin (MOA), from the cDNA for wild-type MOA in vector MOApT7-LO; the final model holds residues 2-293, no density for the first methionine; One protomer in the asymmetric unit; the second subunit of the dimer comes from crystal symmetry; Construct described in Cordara et al. (2011); also called MOA C215A; MOA-C215A
B2: Marasmius oreades agglutinin (MOA) variant C215A/H257A (enzyme)
chain: MSLRRGIYHIENAGVPSAIDLKDGSSSDGTPIVGWQFTPDTINWHQLWLAEPIPNVADTFTLCNLFSGTYMDLYNGSSEAGTAVNGWQGTAFTTNPHQLWTIKKSSDGTSYKIQNYGSKTFVDLVNGDSSDGAKIAGWTGTWDEGNPHQKWYFNRMSVSSAEAQAAIARNPHIHGTYRGYILDGEYLVLPNATFTQIWKDSGLPGSKWREQIYDADDFAIAMKAAVGKWGADSWKANGFAIFCGVMLGVNKAGDAAAAYNFTLTKDHADIVFFEPQNGGYLNDIGYDSYMAFY
notes: Marasmius oreades agglutinin (MOA), from the cDNA for wild-type MOA in vector MOApT7-LO; the final model holds residues 2-293, no density for the first methionine; also called MOA C215A/H257A; MOA-C215A/H257A

Molecular target: the molecule itself
Assay: crystal structure; co-crystallisation by hanging-drop vapour diffusion at 20 °C; MOA variant 5 mg/ml pre-mixed with the trisaccharide Galα1,3(Fucα1,2)Gal (1:20) and the heptapeptide at 1:10 MOA:peptide molar ratio; crystals grew over 2-4 weeks

| Protein | binding result |
| --- | --- |
| B1 | binds |
| B2 | binds |
